In patent US20180111972A1 (Stanford University, published 2018):
Where a chain is given by its changes, count along the chain named. Names may count otherwise. Read-outs that look alike come from different tables or passages of the source.

Columns and labels:
[1] = target: T1, soluble PDGFRβ (Fc or His format not stated for the experiment) (human, UniProt P09619 33-532); experiment: yeast surface display, flow cytometry dot plot: soluble receptor bound (FL1) against surface expression (FL2); receptor concentration not printed [Cont.]
T1 construct: extracellular domain
T1 sequence (P09619 33-532): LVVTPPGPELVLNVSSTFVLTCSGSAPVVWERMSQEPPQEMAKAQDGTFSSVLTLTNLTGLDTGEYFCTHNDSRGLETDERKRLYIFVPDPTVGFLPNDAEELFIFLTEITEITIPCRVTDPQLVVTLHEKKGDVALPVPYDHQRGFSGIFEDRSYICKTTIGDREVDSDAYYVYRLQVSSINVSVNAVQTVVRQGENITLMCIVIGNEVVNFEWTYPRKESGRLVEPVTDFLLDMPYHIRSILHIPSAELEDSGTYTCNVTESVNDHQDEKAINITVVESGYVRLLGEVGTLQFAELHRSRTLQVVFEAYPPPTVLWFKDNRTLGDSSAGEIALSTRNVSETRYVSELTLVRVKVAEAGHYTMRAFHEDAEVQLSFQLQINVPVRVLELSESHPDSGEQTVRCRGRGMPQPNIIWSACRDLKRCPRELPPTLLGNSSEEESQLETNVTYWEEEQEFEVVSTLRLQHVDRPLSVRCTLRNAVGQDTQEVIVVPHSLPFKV

[2] = target: T2, soluble VEGFR2 (Fc or His format not stated for the experiment) (human, UniProt P35968 20-764); experiment: as above
T2 construct: extracellular domain
T2 sequence (P35968 20-764): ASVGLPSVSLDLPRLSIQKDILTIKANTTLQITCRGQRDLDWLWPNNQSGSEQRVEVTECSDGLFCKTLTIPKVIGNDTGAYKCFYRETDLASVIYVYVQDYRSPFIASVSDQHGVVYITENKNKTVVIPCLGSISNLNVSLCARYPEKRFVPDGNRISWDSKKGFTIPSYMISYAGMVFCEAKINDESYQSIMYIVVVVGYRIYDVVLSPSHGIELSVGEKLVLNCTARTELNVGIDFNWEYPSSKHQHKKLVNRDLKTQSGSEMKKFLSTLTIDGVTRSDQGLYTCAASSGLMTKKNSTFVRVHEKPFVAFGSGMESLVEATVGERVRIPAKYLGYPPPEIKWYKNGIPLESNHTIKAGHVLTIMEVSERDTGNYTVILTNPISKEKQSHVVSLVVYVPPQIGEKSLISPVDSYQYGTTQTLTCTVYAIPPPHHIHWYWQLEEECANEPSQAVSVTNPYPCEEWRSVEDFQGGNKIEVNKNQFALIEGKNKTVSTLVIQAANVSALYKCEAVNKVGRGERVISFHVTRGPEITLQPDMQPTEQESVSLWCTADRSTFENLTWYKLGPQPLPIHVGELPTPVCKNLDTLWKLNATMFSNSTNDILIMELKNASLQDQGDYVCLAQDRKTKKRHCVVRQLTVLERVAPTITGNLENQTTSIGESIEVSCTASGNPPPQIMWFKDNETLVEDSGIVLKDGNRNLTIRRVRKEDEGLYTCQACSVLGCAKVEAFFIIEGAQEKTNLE

[3] = target: T2, soluble VEGFR2 (Fc or His format not …); experiment: yeast surface display, flow cytometry dot plot: soluble receptor bound (FL1) against surface expression (FL2); receptor concentration not given
[4] = target: T3, PDGFRβ-His (residues 1-314 of PDGFR-β with C-terminal hexahistidine tag) (human, UniProt P09619 33-314); experiment: yeast surface display titration, flow cytometry
T3 construct: range 1-314; Monovalent form, expressed in FreeStyle 293-F cells; also called PDGRβ-His; PDGFR-His
T3 sequence (P09619 other isoform, or with tags, fused parts or gaps limits assumed, form in doubt): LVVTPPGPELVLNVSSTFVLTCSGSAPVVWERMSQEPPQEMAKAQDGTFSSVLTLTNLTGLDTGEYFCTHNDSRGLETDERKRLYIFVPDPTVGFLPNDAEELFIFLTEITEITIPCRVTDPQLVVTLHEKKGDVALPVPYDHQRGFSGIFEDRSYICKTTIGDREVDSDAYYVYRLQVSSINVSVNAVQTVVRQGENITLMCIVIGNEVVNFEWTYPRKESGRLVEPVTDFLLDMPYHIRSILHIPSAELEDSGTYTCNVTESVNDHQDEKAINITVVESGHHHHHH
Protocol: (§1) Cells were incubated in large enough volumes to avoid ligand depletion and appropriate time to reach equilibrium. During the last hour of incubation, yeast were incubated with 1:250 dilution of chicken anti-c-Myc (Invitrogen) in PBSA. […] Yeast were washed, pelleted, and resuspended in PBSA immediately before analysis by flow cytometry using BD FACSCalibur or BD Accuri C6. Flow cytometry data were analyzed using FlowJo (v7.6.1 and v10, Treestar) or BD Accuri C6 software. Statistical analysis was performed using GraphPad Prism 6.

[5] = target: T4, VEGFR2-His (residues 1-764 of VEGFR2, Ig-like domains 1-7, with hexahistidine tag) (human, UniProt P35968 20-764); experiment: yeast surface display titration, flow cytometry
T4 construct: range 1-764; Monomeric form, expressed in FreeStyle 293-F cells; also called VEGFR-His
T4 sequence (P35968 other isoform, or with tags, fused parts or gaps limits assumed, form in doubt): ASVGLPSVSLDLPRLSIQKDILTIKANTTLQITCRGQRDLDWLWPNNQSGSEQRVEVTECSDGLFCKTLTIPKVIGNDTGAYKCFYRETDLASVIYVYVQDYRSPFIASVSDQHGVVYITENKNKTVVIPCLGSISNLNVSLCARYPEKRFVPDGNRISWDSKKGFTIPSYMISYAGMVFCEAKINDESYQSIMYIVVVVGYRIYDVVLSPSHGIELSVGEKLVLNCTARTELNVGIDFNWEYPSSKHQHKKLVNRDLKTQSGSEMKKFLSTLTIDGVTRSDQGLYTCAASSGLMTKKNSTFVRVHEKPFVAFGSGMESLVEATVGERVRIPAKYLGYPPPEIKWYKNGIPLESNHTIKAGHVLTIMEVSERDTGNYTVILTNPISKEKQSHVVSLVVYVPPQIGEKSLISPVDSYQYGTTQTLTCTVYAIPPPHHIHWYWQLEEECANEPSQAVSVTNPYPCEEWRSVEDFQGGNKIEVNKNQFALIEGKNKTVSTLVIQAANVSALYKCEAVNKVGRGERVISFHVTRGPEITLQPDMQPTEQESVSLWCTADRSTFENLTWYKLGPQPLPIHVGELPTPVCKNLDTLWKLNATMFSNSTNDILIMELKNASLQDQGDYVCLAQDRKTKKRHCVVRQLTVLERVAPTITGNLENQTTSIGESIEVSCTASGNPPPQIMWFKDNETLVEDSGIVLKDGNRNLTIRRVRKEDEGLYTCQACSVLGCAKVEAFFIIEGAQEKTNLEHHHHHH
Protocol: as §1

[6] = target: T4, VEGFR2-His (residues 1-764 of VEGFR2, …); experiment: yeast surface display, flow cytometry equilibrium titration of VEGFR2-His, normalized fluorescence
Protocol: as §1

[7] = target: T3, PDGFRβ-His (residues 1-314 of PDGFR-β …); experiment: yeast surface display, flow cytometry equilibrium titration of PDGFRβ-His (panel 'PDGFR-His'), normalized fluorescence
Protocol: as §1

[8] = target: PDGFRβ on DiscoveRx PathHunter U2OS PDGFRβ reporter cells (UniProt P09619 33-1106, limits assumed); experiment: cell-based or functional assay
PDGFRβ on DiscoveRx PathHunter U2OS PDGFRβ reporter cells, sequence (P09619 33-1106 limits assumed): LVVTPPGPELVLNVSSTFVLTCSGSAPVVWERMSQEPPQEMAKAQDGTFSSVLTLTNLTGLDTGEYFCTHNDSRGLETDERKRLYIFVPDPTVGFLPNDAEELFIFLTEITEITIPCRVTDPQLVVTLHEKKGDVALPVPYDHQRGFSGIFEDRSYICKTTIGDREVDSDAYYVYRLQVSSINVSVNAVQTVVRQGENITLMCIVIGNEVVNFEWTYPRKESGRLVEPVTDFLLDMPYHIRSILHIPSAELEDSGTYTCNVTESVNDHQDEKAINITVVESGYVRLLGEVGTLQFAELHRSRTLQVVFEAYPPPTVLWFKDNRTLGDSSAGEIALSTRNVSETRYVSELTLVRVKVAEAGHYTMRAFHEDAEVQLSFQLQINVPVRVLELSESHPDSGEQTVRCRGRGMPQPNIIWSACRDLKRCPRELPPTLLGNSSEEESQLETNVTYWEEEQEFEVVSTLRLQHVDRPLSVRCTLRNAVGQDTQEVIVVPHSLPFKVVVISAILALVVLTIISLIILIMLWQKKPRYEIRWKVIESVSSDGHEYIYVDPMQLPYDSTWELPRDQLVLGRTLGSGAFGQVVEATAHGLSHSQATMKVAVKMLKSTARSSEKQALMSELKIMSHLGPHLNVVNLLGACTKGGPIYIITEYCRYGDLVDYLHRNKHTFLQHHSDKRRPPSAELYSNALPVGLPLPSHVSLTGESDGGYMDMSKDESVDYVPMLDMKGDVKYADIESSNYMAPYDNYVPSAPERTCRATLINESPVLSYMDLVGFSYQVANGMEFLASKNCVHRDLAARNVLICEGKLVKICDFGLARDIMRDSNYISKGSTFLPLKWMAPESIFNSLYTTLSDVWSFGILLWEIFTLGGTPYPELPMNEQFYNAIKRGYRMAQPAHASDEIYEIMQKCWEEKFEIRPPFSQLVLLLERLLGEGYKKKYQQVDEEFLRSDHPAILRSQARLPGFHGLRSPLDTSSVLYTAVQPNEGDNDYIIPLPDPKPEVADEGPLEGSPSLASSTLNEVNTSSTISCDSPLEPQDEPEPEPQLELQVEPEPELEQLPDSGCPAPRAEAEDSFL

[9] = target: T5, human VEGFR on human umbilical vein endothelial cells (HUVECs) (human, UniProt P35968 20-1356); experiment: flow cytometry on HUVECs, soluble ligand titrated 3 h at 4 C, anti-FLAG-PE
T5 construct: The phosphorylation blots on these cells detect VEGFR2
T5 sequence (P35968 20-1356 limits assumed): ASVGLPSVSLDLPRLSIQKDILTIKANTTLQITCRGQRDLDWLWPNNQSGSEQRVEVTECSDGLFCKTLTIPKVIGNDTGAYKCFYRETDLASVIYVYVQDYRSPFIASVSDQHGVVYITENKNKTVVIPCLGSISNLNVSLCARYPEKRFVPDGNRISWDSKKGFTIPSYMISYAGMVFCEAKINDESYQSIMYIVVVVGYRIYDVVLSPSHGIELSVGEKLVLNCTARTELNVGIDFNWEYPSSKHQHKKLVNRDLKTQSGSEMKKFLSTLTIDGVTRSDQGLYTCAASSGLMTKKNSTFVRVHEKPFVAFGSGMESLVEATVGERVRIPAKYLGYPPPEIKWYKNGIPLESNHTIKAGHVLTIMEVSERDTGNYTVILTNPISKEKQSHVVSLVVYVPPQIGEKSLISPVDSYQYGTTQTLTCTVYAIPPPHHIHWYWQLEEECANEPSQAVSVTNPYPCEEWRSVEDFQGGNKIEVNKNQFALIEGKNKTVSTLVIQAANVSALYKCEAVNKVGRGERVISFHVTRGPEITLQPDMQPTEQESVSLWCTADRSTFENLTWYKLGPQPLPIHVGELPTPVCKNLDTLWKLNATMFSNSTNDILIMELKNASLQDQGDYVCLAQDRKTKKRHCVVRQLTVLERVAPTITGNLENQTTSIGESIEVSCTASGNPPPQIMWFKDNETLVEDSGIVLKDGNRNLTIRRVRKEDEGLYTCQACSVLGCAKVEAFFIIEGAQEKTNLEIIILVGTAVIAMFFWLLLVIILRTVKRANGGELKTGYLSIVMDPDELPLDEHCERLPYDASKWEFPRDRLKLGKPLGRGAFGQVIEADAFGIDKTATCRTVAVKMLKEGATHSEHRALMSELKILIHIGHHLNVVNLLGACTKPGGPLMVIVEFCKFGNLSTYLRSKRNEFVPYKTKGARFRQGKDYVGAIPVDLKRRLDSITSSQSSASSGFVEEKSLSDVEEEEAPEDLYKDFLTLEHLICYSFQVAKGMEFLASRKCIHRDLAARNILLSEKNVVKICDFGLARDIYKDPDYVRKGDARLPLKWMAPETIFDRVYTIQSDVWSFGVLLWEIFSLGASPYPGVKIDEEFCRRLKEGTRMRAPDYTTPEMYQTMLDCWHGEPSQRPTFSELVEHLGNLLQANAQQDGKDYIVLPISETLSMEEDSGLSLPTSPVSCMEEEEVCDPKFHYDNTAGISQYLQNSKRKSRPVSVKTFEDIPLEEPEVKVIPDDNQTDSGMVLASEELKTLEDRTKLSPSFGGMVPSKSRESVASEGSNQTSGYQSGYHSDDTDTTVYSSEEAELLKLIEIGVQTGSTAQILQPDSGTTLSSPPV
Protocol: (§2) To test binding to VEGFR, human umbilical vein endothelial cells (HUVECs) and murine angiosarcoma endothelial cells (SVR) were used.
(§3) Cell-binding assay. Varying concentrations of scPDGF, scVEGF, and PDGF/VEGF ligands were incubated with 25,000 PDGFR- or VEGFR-expressing cells in binding buffer (20 mM Tris pH 7.5 with 1 mM MgCl₂, 1 mM MnCl₂, 2 mM CaCl₂, 100 mM NaCl, and 1 mg/ml BSA) for 5 hr (BJ-5ta, NIH/3T3) or 3 hr (HUVEC, SVR) at 4° C. Cells were washed and pelleted, then incubated with 1:100 R-PE-conjugated anti-FLAG antibody (Prozyme) for 15 min on ice. Cells were washed, pelleted, and resuspended in binding buffer immediately before analysis by flow cytometry using BD Accuri C6. Flow cytometry data were analyzed using BD Accuri C6 software, and statistical analysis was performed using GraphPad Prism 6.

[10] = target: T5, human VEGFR on human umbilical vein …; experiment: flow cytometry titration of the soluble FLAG-tagged protein on HUVECs, anti-FLAG detection
Protocol: as §2, §3

[11] = target: T3, PDGFRβ-His (residues 1-314 of PDGFR-β …); experiment: yeast surface display titration, flow cytometry; remark: listed apart in the source
Protocol: as §1

[12] = target: T4, VEGFR2-His (residues 1-764 of VEGFR2, …); experiment: yeast surface display titration, flow cytometry; remark: listed apart in the source
Protocol: as §1

[13] = target: T6, PDGFRβ-Fc (residues 1-314 of PDGFR-β fused to the Fc region of mouse IgG2a) (human; mouse, UniProt P09619 33-314); experiment: yeast surface display titration, flow cytometry; PDGFRβ-Fc (bivalent)
T6 construct: range 1-314; Expressed in FreeStyle 293-F cells; also called PDGRβ-Fc; PDGFR-Fc; not shown: Fc region of mouse IgG2a
T6 sequence (P09619 33-314 limits assumed, form in doubt): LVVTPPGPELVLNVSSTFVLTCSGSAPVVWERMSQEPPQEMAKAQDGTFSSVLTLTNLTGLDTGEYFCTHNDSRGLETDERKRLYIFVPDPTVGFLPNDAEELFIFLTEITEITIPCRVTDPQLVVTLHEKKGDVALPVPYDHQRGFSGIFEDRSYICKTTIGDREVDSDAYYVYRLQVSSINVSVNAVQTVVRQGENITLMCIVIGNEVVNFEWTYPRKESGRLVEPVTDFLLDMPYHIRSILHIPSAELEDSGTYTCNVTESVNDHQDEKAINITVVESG
Protocol: as §1

[14] = target: T3, PDGFRβ-His (residues 1-314 of PDGFR-β …); experiment: yeast surface display titration, flow cytometry; PDGFRβ-His (monovalent)
Protocol: We tested the monovalent version of PDGFR (PDGRβ-His) to remove any avidity effects that may affect the measurements.
as §1

[15] = target: T3, PDGFRβ-His (residues 1-314 of PDGFR-β …); experiment: yeast surface display, flow cytometry titration of PDGFRβ-His
Protocol: as §1

[16] = target: T1, soluble PDGFRβ (Fc or His format not …); experiment: yeast surface display titration; table under the panel 'PDGFR binding', Fc or His form not given
[17] = target: T1, soluble PDGFRβ (Fc or His format not …); experiment: yeast surface display, flow cytometry titration of soluble receptor; panel 'PDGFR binding', Fc or His form not given
VEGFR2-Fc (R&D Systems) = target: T7, VEGFR2-Fc (R&D Systems) (human, UniProt P35968 20-764); experiment: yeast surface display, flow cytometry titration of VEGFR2-Fc
T7 construct: extracellular domain; Bought reagent; also called VEGFR-Fc; not shown: Fc part, detected with anti-human-IgG (Fc specific)
T7 sequence (P35968 20-764): as the sequence (P35968 20-764) above
Protocol: as §1

[18] = target: T6, PDGFRβ-Fc (residues 1-314 of PDGFR-β …); experiment: yeast surface display, flow cytometry titration of PDGFRβ-Fc
Protocol: as §1

B1: PV3 PDGF/VEGF hybrid construct, yeast-displayed (designed binder)
chain: IAEPAMIAECKTRTEVVDIFQEYPDEIEYIFKPSCVPLMRCSGCCNNRNVQCRPTEESNITMQIMRIKPHQGQHIGEMSFLQHLACKCETVAAGSTSGSGKSSEGKGEVVKFMDVYQRSYCHPIETLFEISRRLIDRTNANFLVWPPCVEVQRCGGCCNDEGLECVPTQVQLRPVQVRKIEIVRKKPIFKKATVTLEDHNKCECRPKKD
notes: only PV1
binding result [1]: no binding | binding result [2]: no binding

B2: PV5 PDGF/VEGF hybrid construct, yeast-displayed (designed binder)
chain: B1 chain with V17F, D18E, F128V, E129D
notes: only PV1
binding result [1]: no binding | binding result [2]: no binding

B3: PV7 PDGF/VEGF hybrid construct, yeast-displayed (designed binder)
chain: B1 chain with T14E, E15T, V16L, L84N, A85K, E125T, T126E, L127V, N200L, K201A
notes: the text names only PV6
binding result [3]: binds

B4: PV4 PDGF/VEGF hybrid construct, yeast-displayed (designed binder)
chain: B1 chain with V17F, F128V
notes: only PV1
binding result [1]: no binding | binding result [2]: no binding

B5: PV8 PDGF/VEGF hybrid construct, yeast-displayed (designed binder)
chain: B1 chain with R13I, T14E, E15T, V16L, I124R, E125T, T126E, L127V
notes: the text names only PV6
binding result [3]: binds

B6: PVGS, yeast-displayed (designed binder)
chain: IAEPAMIAECHPIETLVDILQEYPDEIGYIFKPSCVPLMRCGGCCNNRNVQCRPTEESNITMQIMRIKPHRGQHIGEMSFLQHNKCRCETVAAGGGGSGGGGSGGGGSGGGGSEVVKFMDVYQRSYCKTRTEVFEISRRLIDATNANFLVWPPCVEVQRCSGCCNHEGLECVPTQVQLRPVQVRKIEFVRKKPIFKKATVTLEDHLACECRPKKD
Kd [4]: 0.25 nM | Kd [5]: 1.1 nM | EC50 (read off the curve) [6]: ~1 nM | EC50 (read off the curve) [7]: ~0.3 nM

B7: PVAM-S (PV R32A), soluble, FLAG and hexahistidine tags (designed binder)
chain: DYKDDDDKIAEPAMIAECHPIETLVDILQEYPDEIGYIFKPSCVPLMRCGGCCNNRNVQCRPTEESNITMQIMRIKPHRGQHIGEMSFLQHNKCRCETVAAGSTSGSGKSSEGKGEVVKFMDVYQRSYCKTRTEVFEISRRLIDATNANFLVWPPCVEVQRCSGCCNHEGLECVPTQVQLRPVQVRKIEFVRKKPIFKKATVTLEDHLACECRPKKDHHHHHH
notes: Secreted from S. cerevisiae YVH10 and treated with Endo Hf
IC50 of inhibition of stimulation by 0.5 nM PDGF-BB, PathHunter PDGFRβ reporter cells [8]: 1.4 nM | Kd [9]: 0.53 nM | EC50 (read off the curve) [10]: ~0.7 nM

B8: PV6 PDGF/VEGF chimera, yeast-displayed (designed binder)
chain: IAEPAMIAECHPIETLVDIFQEYPDEIEYIFKPSCVPLMRCGGCCNNRNVQCRPTEESNITMQIMRIKPHQGQHIGEMSFLQHNKCKCETVAAGSTSGSGKSSEGKGEVVKFMDVYQRSYCKTRTEVFEISRRLIDRTNANFLVWPPCVEVQRCSGCCNDEGLECVPTQVQLRPVQVRKIEIVRKKPIFKKATVTLEDHLACKCRPKKD
Kd [11]: 270 nM | Kd [12]: 230 nM | Kd [13]: 0.099 nM | Kd [14]: 140 nM | EC50 (read off the curve) [15]: ~100 nM | Kd [16]: 140 nM | EC50 (read off the curve) [17]: ~100 nM

B9: V5-5, yeast-displayed variant from the Vshuf library (designed binder)
chain: B8 chain with M6V, F20L, E28G, Q71R, D160H, K203E, D209V
binding result (VEGFR2-Fc (R&D Systems)): binds

B10: PV6 K87R variant, yeast-displayed (designed binder)
chain: B8 chain with K87R
notes: Clone from the PDGFR sorts of the error-prone library made from PV6; also called PV K87R
Kd [13]: 0.049 nM | Kd [14]: 6.4 nM | EC50 (read off the curve) [18]: ~0.05 nM | EC50 (read off the curve) [15]: ~6 nM

B11: PVAM-S (PV R32A), yeast-displayed (designed binder)
chain: B8 chain with F20L, E28G, Q71R, K87R, R137A, D160H, I182F, K203E
notes: PVAM with R137A (R32A in PDGF-B numbering); also called R137A variant
Kd [4]: 0.34 nM | Kd [5]: 1 nM | EC50 (read off the curve) [6]: ~1 nM

B12: PV6 I182F variant, yeast-displayed (designed binder)
chain: B8 chain with I182F, K203E
notes: Clone from the PDGFR sorts of the error-prone library made from PV6; also called PV I182F
Kd [13]: 0.067 nM | Kd [14]: 2.5 nM | EC50 (read off the curve) [18]: ~0.07 nM | EC50 (read off the curve) [15]: ~3 nM

B13: V3-3, yeast-displayed variant from the Vshuf library (designed binder)
chain: B8 chain with M6V, F20L, E28G, Q71R, D160H, K203E
binding result (VEGFR2-Fc (R&D Systems)): binds
